Measured values published in the supplement of paper PMC9233669.
Variants at the floor of the assay were thinned out.

Assays:
biotinyl-Phe-oxazolone = test: self-aminoacylation, catalytic enhancement (BFO) (fold over background); higher = more active; k-Seq, kA / k0A0; sequences stand for … in GGGAAUGGAUCCACAUCUACGAAUUC…UUCACUGCAGACUUGACGAAGCUG
Procedure, shortened: (§1)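 Mutagenized RNA pools (0.43 μM; 21-nt variable region) were treated with 2–1250 μM of each biotinyl-aminoacyl-oxazolone. Conditions were 50 μL HEPES/NaCl/KCl/MgCl2/CaCl2 buffer, 5% acetonitrile, pH 6.9–7.0, room temperature, 90 minutes. Catalytic enhancement, the median kA relative to the uncatalyzed rate, was derived from streptavidin capture, qPCR and Illumina sequencing.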

biotinyl-Ile-oxazolone = test: self-aminoacylation, catalytic enhancement (BIO) (fold over background); higher = more active; k-Seq, kA / k0A0; sequences stand for … in GGGAAUGGAUCCACAUCUACGAAUUC…UUCACUGCAGACUUGACGAAGCUG
Procedure, shortened: as §1

biotinyl-Met-oxazolone = test: self-aminoacylation, catalytic enhancement (BMO) (fold over background); higher = more active; k-Seq, kA / k0A0; sequences stand for … in GGGAAUGGAUCCACAUCUACGAAUUC…UUCACUGCAGACUUGACGAAGCUG
Procedure, shortened: as §1

biotinyl-Val-oxazolone = test: self-aminoacylation, catalytic enhancement (BVO) (fold over background); higher = more active; k-Seq, kA / k0A0; sequences stand for … in GGGAAUGGAUCCACAUCUACGAAUUC…UUCACUGCAGACUUGACGAAGCUG
Procedure, shortened: as §1

biotinyl-Leu-oxazolone = test: self-aminoacylation, catalytic enhancement (BLO) (fold over background); higher = more active; k-Seq, kA / k0A0; sequences stand for … in GGGAAUGGAUCCACAUCUACGAAUUC…UUCACUGCAGACUUGACGAAGCUG
Procedure, shortened: as §1

biotinyl-Trp-oxazolone = test: self-aminoacylation, catalytic enhancement (BWO) (fold over background); higher = more active; k-Seq, kA / k0A0; sequences stand for … in GGGAAUGGAUCCACAUCUACGAAUUC…UUCACUGCAGACUUGACGAAGCUG
Procedure, shortened: as §1

Row | Sequence | self-aminoacylation (biotinyl-Phe-oxazolone) | self-aminoacylation (biotinyl-Ile-oxazolone) | self-aminoacylation (biotinyl-Met-oxazolone) | self-aminoacylation (biotinyl-Val-oxazolone) | self-aminoacylation (biotinyl-Leu-oxazolone) | self-aminoacylation (biotinyl-Trp-oxazolone)
1 | UAGCUUGCUAAUAGUCGCAAG [Fam3.1 aminoacylation ribozyme variant] | 3.65 | 2.34 | 1.88 | 2.22 | 1.8 | 1.84
2 | CUACUUCAAACCAUCGAUCUG [Fam1A.1 aminoacylation ribozyme variant] | 0.733 | 0.685 | 0.614 | 0.777 | 0.529 | 0.581
3 | CAACACUUCAAGCAACCGGUC [Fam1B.1 aminoacylation ribozyme variant] | 1.59 | 1 | 1.12 | 0.998 | 1.2 | 0.754
4 | CUACUACAAACAAUCGGGCUG [Fam1A.1 aminoacylation ribozyme variant] | 0.456 | 1.16 | 0.989 | 1.05 | 1.07 | 0.83
5 | CUACUUCGAACAAUCGGCCUG [Fam1A.1 aminoacylation ribozyme variant] | 4.78 | 1.6 | 1.71 | 1.54 | 1.36 | 1.84
6 | AUUAACCUGGUCAUCGGGUGA [Fam2.1 aminoacylation ribozyme variant] | 53.1 | 4.26 | 8.87 | 4.72 | 9.83 | 11
7 | CCACACUUCAAGUAAUCGGUA [Fam1B.1 aminoacylation ribozyme variant] | 0.884 | 1.01 | 1.09 | 0.929 | 1.17 | 0.708
8 | CCACACUUCACGCAAUCUGUC [Fam1B.1 aminoacylation ribozyme variant] | 0.436 | 0.481 | 0.472 | 0.678 | 0.447 | 0.464
9 | AUUCACCUAGGUCAUCGGCUU [Fam2.2 aminoacylation ribozyme variant] | 6.3 | 2.1 | 2.26 | 2.02 | 2.3 | 3.27
10 | AUUCUCCUAGGUCAUCGGGUU [Fam2.2 aminoacylation ribozyme variant] | 14.8 | 3.08 | 3.79 | 3.07 | 4.14 | 3.6
11 | AUUCGCCUGGGUCAUCGGGUG [Fam2.2 aminoacylation ribozyme variant] | 63.1 | 6 | 12.9 | 7.88 | 15.8 | 14.1
12 | UUUCACCUAGGUCAUCGGCUG [Fam2.2 aminoacylation ribozyme variant] | 8.98 | 1.93 | 1.89 | 2.29 | 1.82 | 2.74
13 | AUUACCCUGGUCAUCGUCUGA [Fam2.1 aminoacylation ribozyme variant] | 0.374 | 0.88 | 0.842 | 0.817 | 0.907 | 0.531
14 | AUUACGCUGGUCUUCGAGUGA [Fam2.1 aminoacylation ribozyme variant] | 12.9 | 3.35 | 4.27 | 3.32 | 5.46 | 5.95
15 | CCACACUUCAGGCAACCGGUC [Fam1B.1 aminoacylation ribozyme variant] | 1.64 | 1.89 | 1.61 | 1.95 | 1.38 | 1.27
16 | CUACUUGAAACAAUCGGUCUG [Fam1A.1 aminoacylation ribozyme variant] | 0.652 | 0.766 | 0.788 | 0.779 | 0.707 | 0.631
17 | CCACCCUACAAGCAAUCGGUC [Fam1B.1 aminoacylation ribozyme variant] | 0.931 | 1.36 | 1.3 | 1.17 | 1.19 | 1.16
18 | CGACUUCAAACAAUCAGUCUG [Fam1A.1 aminoacylation ribozyme variant] | 28.2 | 0.938 | 1.01 | 0.893 | 1.27 | 10.2
19 | AUUACCCUGUUCAUCGGGUGA [Fam2.1 aminoacylation ribozyme variant] | 64.2 | 4.92 | 9.44 | 5.19 | 9.74 | 12
20 | AUUACCCUGGUCAUCGAGUAC [Fam2.1 aminoacylation ribozyme variant] | 17.2 | 2.32 | 6.05 | 3.03 | 5.94 | 4.57
21 | AUUACCCUACUCAUCGAGUGA [Fam2.1 aminoacylation ribozyme variant] | 35.1 | 3.24 | 7.19 | 3.19 | 6.54 | 9
22 | AUUACCCAGGUCAUUGAGUGA [Fam2.1 aminoacylation ribozyme variant] | 53.1 | 4.59 | 8.2 | 4.36 | 9.04 | 10.4
23 | AUUCACCUAGGUAAUCGCGUG [Fam2.2 aminoacylation ribozyme variant] | 16.1 | 1.75 | 2.51 | 2.15 | 2.8 | 2.74
24 | AUUACCCAGGUCGUCGAGUGA [Fam2.1 aminoacylation ribozyme variant] | 0.686 | 0.849 | 0.786 | 0.951 | 0.669 | 0.416
25 | CCACAGUUCAAGCAGUCGGUC [Fam1B.1 aminoacylation ribozyme variant] | 0.63 | 0.937 | 1.01 | 1.2 | 1.04 | 0.757
26 | AAGUUUGCCAGUAGUCGCAAG [Fam3.1 aminoacylation ribozyme variant] | 0.763 | 1.04 | 0.793 | 0.932 | 1.02 | 1.21

Row | Sequence | self-aminoacylation (biotinyl-Phe-oxazolone) | self-aminoacylation (biotinyl-Ile-oxazolone) | self-aminoacylation (biotinyl-Met-oxazolone) | self-aminoacylation (biotinyl-Val-oxazolone) | self-aminoacylation (biotinyl-Leu-oxazolone) | self-aminoacylation (biotinyl-Trp-oxazolone)
27 | ACUCACCUGGGUCAUCGGGUG [Fam2.2 aminoacylation ribozyme variant] | 38.9 | 4.86 | 4.83 | 4.66 | 5.61 | 8.05
28 | AUUACCCCGGUCCUCGAGUGA [Fam2.1 aminoacylation ribozyme variant] | 25.5 | 2.29 | 3.32 | 2.21 | 3.97 | 4.82
29 | AUUCACCUACGUCAUGGGGUG [Fam2.2 aminoacylation ribozyme variant] | 11 | 1.79 | 2.5 | 2.01 | 2.62 | 1.67
30 | AAGGUUGCUAAUAGUCUCAAG [Fam3.1 aminoacylation ribozyme variant] | 2.46 | 1.13 | 1.05 | 0.996 | 0.944 | 1.52
31 | AUUCACCUAGUUCAUCGCGUG [Fam2.2 aminoacylation ribozyme variant] | 35.7 | 3.27 | 4.88 | 2.99 | 6.91 | 5.66
32 | AUUCACCUAGGUCAUCCAGUG [Fam2.2 aminoacylation ribozyme variant] | 52 | 5.19 | 7.78 | 4.21 | 9.68 | 6.96
33 | CUACUUCAAACAAUCGGUGGG [Fam1A.1 aminoacylation ribozyme variant] | 1.14 | 0.934 | 0.811 | 0.816 | 0.878 | 0.856
34 | CUACUUCAAACAAUCGUUCGG [Fam1A.1 aminoacylation ribozyme variant] | 0.675 | 0.787 | 0.641 | 0.623 | 0.637 | 0.473
35 | AUCCCCCUAGGUCAUCGGGUG [Fam2.2 aminoacylation ribozyme variant] | 132 | 8.62 | 13.3 | 8.74 | 17.6 | 12.6
36 | AUGUUUGCCAAUAGUCGCAAG [Fam3.1 aminoacylation ribozyme variant] | 1.82 | 1.53 | 1.64 | 1.33 | 1.14 | 1.15
37 | AAGUUUCCGAAUAGUCGCAAG [Fam3.1 aminoacylation ribozyme variant] | 2.81 | 2.01 | 1.73 | 1.79 | 1.7 | 1.87
38 | AUUACCCGGGGCAUCGAGUGA [Fam2.1 aminoacylation ribozyme variant] | 62.9 | 5.21 | 8.31 | 4.54 | 10.2 | 11.5
39 | AUUCAACUAGGUCAACGGGUG [Fam2.2 aminoacylation ribozyme variant] | 25.5 | 2.4 | 4.31 | 2.31 | 4.91 | 3.38
40 | AUUCAUCUAGGUCAUCGGGUU [Fam2.2 aminoacylation ribozyme variant] | 3.41 | 2.22 | 2.46 | 2.03 | 2.81 | 2.36
41 | AAGUUUGCUAAUAGUCACAAA [Fam3.1 aminoacylation ribozyme variant] | 1.34 | 1.21 | 1.32 | 1.09 | 1.22 | 1.15
42 | AUUCACCUAGGUCUUCGGGUC [Fam2.2 aminoacylation ribozyme variant] | 3.66 | 1.65 | 1.33 | 1.68 | 2.37 | 1.79
43 | AUUCACCUAGGUCAUCAGGGG [Fam2.2 aminoacylation ribozyme variant] | 0.986 | 1.22 | 0.955 | 1.22 | 1.32 | 0.985
44 | AGUACCCUGGUCAUCGACUGA [Fam2.1 aminoacylation ribozyme variant] | 0.572 | 1.34 | 1.1 | 1.07 | 0.974 | 1.01
45 | CGACACUUCAACCAAUCGGUC [Fam1B.1 aminoacylation ribozyme variant] | 18.2 | 1.38 | 1.61 | 1.6 | 1.65 | 13.4
46 | AAGUUUGCUAAGAGUCGUAAG [Fam3.1 aminoacylation ribozyme variant] | 7.41 | 0.61 | 0.708 | 0.757 | 0.535 | 2.31
47 | CUUCUUCAAACAAUCCGUCUG [Fam1A.1 aminoacylation ribozyme variant] | 1.17 | 0.85 | 0.623 | 0.901 | 0.923 | 0.964
48 | AUCACCCUCGUCAUCGAGUGA [Fam2.1 aminoacylation ribozyme variant] | 19.7 | 2.12 | 3.54 | 2.36 | 3.13 | 3.31
49 | AUUCAUCUAGGUCAUCGGGUA [Fam2.2 aminoacylation ribozyme variant] | 4.63 | 3.09 | 4.18 | 3.46 | 5.18 | 5.53
50 | AUUACCCUGGUCAUCCAAUGA [Fam2.1 aminoacylation ribozyme variant] | 1.66 | 0.938 | 1.2 | 0.942 | 1.47 | 0.429
51 | AUUACCCUGUUCUUCGAGUGA [Fam2.1 aminoacylation ribozyme variant] | 23.3 | 3.05 | 5.6 | 3.41 | 5.58 | 7.83
